Source: patent publication US20140011207, “PSA BINDING APTAMER AND METHOD FOR DIAGNOSIS OF PROSTATE CANCER” (National University Corporation Tokyo University of …, published 2014)

Columns and labels:
[1] = target: T1, Prostate-specific antigen (PSA, KLK3) (Homo sapiens, UniProt P07288 P07288:25-261); test: ELONA; settings: tags: purified from human semen; Sigma-Aldrich and Scipac; label: 5'-FITC
Method: (§1) 100 μL amounts of PSA in PBS buffer (pH 7.4), at final concentration of 5 μg/mL, were added to a 96-well polystyrene plate. After 2 h incubation with gentle shaking at 37° C., the supernatant was removed and each well was washed with TBST buffer. Each well was filled with 100 μl of five-fold-diluted blocking reagent N102 and incubated with gentle shaking for 1 h at room temperature, and then washed three times. FITC-labeled aptamer was heat treated in TBS buffer as described above for folding. To each well 100 μL amounts of the FITC-labeled aptamer in TBST buffer (5 μM) were added and incubated for 1 h at room temperature. After washing three times, HRP-conjugated anti-FITC antibody was added to each well and incubated with gentle shaking for 1 h at room temperature. Each well was washed five times and BM chemiluminescence HRP substrate was added, then the HRP activity was measured by a multi label plate counter: Wallac 1420 ARVO MX (Perkin Elmer).
In order to carry out a post-SELEX screening of aptamers using GA with candidates, the five sequences pre-selected through SELEX were used as “parents” to produce a set of 20 oligonucleotide sequences using GA. These oligonucleotides were synthesized and the PSA-binding ability was evaluated by plate assay. The PSA-binding ability was measured by detection chemiluminescence from HRP-conjugated anti-FITC antibody that represented the binding of oligonucleotides against PSA immobilized on a well of polystyrene plate (n=2). The signal intensity was normalized with that of the top oligonucleotide in the 1st-generation. Then, the oligonucleotides were ranked according to PSA-binding ability, and top four ranked sequences were chosen to produce a next set of oligonucleotide sequences. The cycle of oligonucleotide synthesis, plate assay and evolution of the oligonucleotide sequences using GA was repeated three times, with one cycle corresponding to one generation when we assume this process to be the in silico evolution of the PSA-binding aptamer. After one cycle of GA operations, four 2nd-generation sequences, SEQ ID: Nos. 8 to 11, were obtained.

[2] = target: T1, Prostate-specific antigen (PSA, KLK3); test: ELONA; rank 7 of 1st generation; settings: tags: purified from human semen; Sigma-Aldrich and Scipac; label: 5'-FITC
Method: as §1, with “After washing three times, HRP-conjugated anti-FITC antibody was added to each well and incubated with gentle shaking for 1 h at room temperature.” left out
(§2) In order to carry out a post-SELEX screening of aptamers using GA with candidates, the five sequences pre-selected through SELEX were used as “parents” to produce a set of 20 oligonucleotide sequences using GA. These oligonucleotides were synthesized and the PSA-binding ability was evaluated by plate assay. The PSA-binding ability was measured by detection chemiluminescence from HRP-conjugated anti-FITC antibody that represented the binding of oligonucleotides against PSA immobilized on a well of polystyrene plate (n=2). […]

[3] = target: T1, Prostate-specific antigen (PSA, KLK3); test: ELONA; rank 6 of 1st generation; settings: tags: purified from human semen; Sigma-Aldrich and Scipac; label: 5'-FITC
Method: as §1, with “After washing three times, HRP-conjugated anti-FITC antibody was added to each well and incubated with gentle shaking for 1 h at room temperature.” left out
as §2

[4] = target: T1, Prostate-specific antigen (PSA, KLK3); test: ELONA; rank 2 of 1st generation; settings: tags: purified from human semen; Sigma-Aldrich and Scipac; label: 5'-FITC
Method: as §1, with “After washing three times, HRP-conjugated anti-FITC antibody was added to each well and incubated with gentle shaking for 1 h at room temperature.” left out
as §2

[5] = target: T1, Prostate-specific antigen (PSA, KLK3); test: ELONA; rank 3 of 1st generation; settings: tags: purified from human semen; Sigma-Aldrich and Scipac; label: 5'-FITC
Method: as §1, with “After washing three times, HRP-conjugated anti-FITC antibody was added to each well and incubated with gentle shaking for 1 h at room temperature.” left out
as §2

[6] = target: T1, Prostate-specific antigen (PSA, KLK3); test: ELONA; rank 5 of 1st generation; settings: tags: purified from human semen; Sigma-Aldrich and Scipac; label: 5'-FITC
Method: as §1, with “After washing three times, HRP-conjugated anti-FITC antibody was added to each well and incubated with gentle shaking for 1 h at room temperature.” left out
as §2

[7] = target: T1, Prostate-specific antigen (PSA, KLK3); test: ELONA; rank 1 of 1st generation; 1st generation up to 10-fold higher than parents; settings: tags: purified from human semen; Sigma-Aldrich and Scipac; label: 5'-FITC
Method: as §1, with “After washing three times, HRP-conjugated anti-FITC antibody was added to each well and incubated with gentle shaking for 1 h at room temperature.” left out
as §2

[8] = target: T1, Prostate-specific antigen (PSA, KLK3); test: ELONA; PSA immobilized on polystyrene plate; TBST with 5 mM KCl, 5 mM MgCl2, pH 7.4, room temp; settings: tags: purified from human semen; Sigma-Aldrich and Scipac; label: 5'-FITC; predicted stem-loop
Method: as §1, with “After washing three times, HRP-conjugated anti-FITC antibody was added to each well and incubated with gentle shaking for 1 h at room temperature.” left out
Plate assay for detection of PSA was performed as described above with the following modifications. […] After incubation with HRP-conjugated anti-FITC antibody, chemiluminescence from HRP was measured.
Plate assay was performed to measure PSA concentrations with ΔPSap4#5 selected using GA as the top oligonucleotide of the 4th-generation. […] Then, the PSA concentration was measured by detecting chemiluminescence from HRP-conjugated anti-FITC antibody that represented the binding of FITC-labeled ΔPSap4#5 against PSA immobilized on a well of polystyrene plate (n=2). […]

[9] = target: T1, Prostate-specific antigen (PSA, KLK3); test: ELONA; rank 4 of 1st generation; settings: tags: purified from human semen; Sigma-Aldrich and Scipac; label: 5'-FITC
Method: as §1, with “After washing three times, HRP-conjugated anti-FITC antibody was added to each well and incubated with gentle shaking for 1 h at room temperature.” left out
as §2

T1 sequence (P07288 25-261, one chain of several): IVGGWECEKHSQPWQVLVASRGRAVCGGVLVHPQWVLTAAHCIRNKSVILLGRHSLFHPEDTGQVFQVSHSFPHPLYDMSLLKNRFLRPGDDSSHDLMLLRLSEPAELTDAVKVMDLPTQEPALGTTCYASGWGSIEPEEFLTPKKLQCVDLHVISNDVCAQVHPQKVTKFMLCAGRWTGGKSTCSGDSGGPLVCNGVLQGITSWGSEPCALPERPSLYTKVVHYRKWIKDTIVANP

TTTTTGCCTACTGATTTCCTTTTTGAGCCTTT (ssDNA) [ΔPSap2#01]
binding signal [1]: 1170 CPS (normalized HRP chemiluminescence)

TTTTTACTTAATGATTTCACCGGTGGCCCTTT (ssDNA) [ΔPSap1#19]
binding result [2]: binds

TTTTTGCCTAATGATTTCCCGGTTGTCTCTTT (ssDNA) [ΔPSap1#15]
binding result [3]: binds

TTTTTACTTAAGGATTTCCTTTTTTAGCCTTT (ssDNA) [ΔPSap1#3]
binding result [4]: binds

TTTTTACTGTGAACTCGCCATCAAATATCTTT (ssDNA) [ΔPSap2#16]
binding signal [1]: 1480 CPS (normalized HRP chemiluminescence)

TTTTTAATGTCAACTCGCCATCAAATATCTTT (ssDNA) [ΔPSap1#16]
binding result [5]: binds

TTTTTAATATCACCCTTGTTTACTGTCCCTTT (ssDNA) [ΔPSap1#12]
binding result [6]: binds

TTTTTAATGTCAACGTTGTTTACTGTCCCTTT (ssDNA) [ΔPSap2#18]
binding signal [1]: 1490 CPS (normalized HRP chemiluminescence)

TTTTTAATATCAACTTGCCATAAAGGGCCTTT (ssDNA) [ΔPSap1#13]
binding result [7]: binds

TTTTTAATTAAGGATTTCCCGGTTGTATCTTT (ssDNA) [ΔPSap2#02]
binding signal [1]: 1550 CPS (normalized HRP chemiluminescence)

TTTTTAATTAAAGCTCGCCATCAAATAGCTTT (ssDNA) [ΔPSap4#5]
Kd [8]: 54 nM

TTTTTAATTAAGGCTCGCCATCAGATAGCTTT (ssDNA) [ΔPSap4#7]
binding signal [1]: 3260 CPS (normalized HRP chemiluminescence)

TTTTTAATTCAGGCTCGCCATCAAATAGCTTT (ssDNA) [ΔPSap4#1]
binding signal [1]: 1800 CPS (normalized HRP chemiluminescence)

TTTTTAATTAAGGCTCGCCATCAAAGAGCTTT (ssDNA) [ΔPSap4#14]
binding signal [1]: 2510 CPS (normalized HRP chemiluminescence)

TTTTTAATTAAGGCTCGCCATCAAAAAGCTTT (ssDNA) [ΔPSap4#19]
binding signal [1]: 1220 CPS (normalized HRP chemiluminescence)

TTTTTTATTAAGGCTCGCCATCAAATAGCTTT (ssDNA) [ΔPSap4#10]
binding signal [1]: 3300 CPS (normalized HRP chemiluminescence)

TTTTTAATTAAGGCTCGCCATCAAATAACTTT (ssDNA) [ΔPSap4#11]
binding signal [1]: 2150 CPS (normalized HRP chemiluminescence)

TTTTTCCTCACCGGGTAACTTCGTGGCCCTTT (ssDNA) [ΔPSap1#5]
binding result [9]: binds
